B1: humanized anti-EphA4 monoclonal antibody (antibody B) (antibody, human IgG2, V domains shown)
VH: QVQLVESGGGVVQPGRSLRLSCAVSGFSLTRFGVHWVRQAPGKGLEWVAVIWRGGSTDYNAAFMSRLTISKDNSKNTVYLQMNSLRAEDTAVYYCAKESLFGVYYDYGYYSMDYWGQGTTVTVSS
VL: DIQMTQSPSSLSASVGDRVTITCRASQEISGYLSWLQQKPGKAPKRLIYAASTLDSGVPSRFSGSRSGTEYTLTISSLQPEDFATYYCLQYASYPLTFGGGTKVEIKR
notes: expressed in Expi293F cells; also called humanized antibody of antibody A; HK2-42 / L1-8
B2: mouse anti-EphA4 monoclonal antibody (antibody A) (antibody, mouse IgG1, kappa, V domains shown)
VH: QVQLKQSGPSLVQPSQSLSITCTVSGFSLTRYGVHWVRQSPGKGLEWLGVIWRGGSTDYNAAFMSRLSITKDNSKSQVFFKMNSLQADDTAIYYCAKESLFGVYYDYGYYSMDYWGQGTSVTVSS
VL: DIQMTQSPSSLSASLGERVSLTCRASQEISGYLSWLQQKPDGTIKRLIYAASTLDSGVPKRFSGSRSGSDYSLTISSLESEDFADYYCLQYASYPLTFGAGTKLELKR
notes: purified from hybridoma supernatant

Tests used:
[1] = target: T1, human EphA4 extracellular region-SEAP-His protein (human, UniProt P54764 20-547); assay: SPR, Biacore T200; EphA4 extracellular region-SEAP-His captured on anti-His chip, antibody as analyte, 1:1 model
T1 construct: also called human EphA4 extracellular region-SEAP-His 10; not shown: secretory alkaline phosphatase (SEAP); histidine tag
T1 sequence (P54764 20-547): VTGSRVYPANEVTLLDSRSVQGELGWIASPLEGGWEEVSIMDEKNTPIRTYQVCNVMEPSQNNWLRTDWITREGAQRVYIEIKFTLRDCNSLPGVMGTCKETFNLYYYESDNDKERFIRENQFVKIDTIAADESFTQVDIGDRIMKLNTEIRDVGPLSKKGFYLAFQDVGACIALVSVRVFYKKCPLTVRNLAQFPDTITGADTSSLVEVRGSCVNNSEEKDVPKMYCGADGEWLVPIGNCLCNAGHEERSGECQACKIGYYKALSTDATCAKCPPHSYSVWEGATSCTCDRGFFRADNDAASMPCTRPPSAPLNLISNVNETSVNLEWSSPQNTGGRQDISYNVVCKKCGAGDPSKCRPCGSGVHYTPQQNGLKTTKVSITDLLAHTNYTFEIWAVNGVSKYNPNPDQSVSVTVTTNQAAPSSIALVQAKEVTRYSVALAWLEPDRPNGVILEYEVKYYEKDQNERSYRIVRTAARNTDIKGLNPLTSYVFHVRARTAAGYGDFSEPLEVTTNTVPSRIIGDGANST
Experimental: The binding affinity of antibody A against mouse and human EphA4 was determined by surface plasmon resonance (SPR method) employing Biacore T200 (GE Healthcare). First, anti-His antibodies (GE Healthcare, 28-9950-56) were fixed to a sensor chip CM5. Fixation was carried out by amine coupling method employing N-hydroxysuccinimide (NHS) and N-ethyl-N′-(3-dimethylaminopropyl) carbodiimide hydrochloride salt (EDC), and ethanolamine was employed for blocking (the sensor chip and reagents for fixation are all from GE Healthcare). This was diluted with the fixation buffer (10 mM sodium acetate, pH 4.5) to 3.5 μg/mL, and fixed onto the sensor chip according to the protocol accompanying Biacore T200. Mouse or human EphA4 extracellular region-SEAP-His 10 was diluted with the running buffer HBS-EP (GE Healthcare, BR-1001-88), and the solution was sent and captured onto the flow cell for 120 seconds (about 10 RU of captured amount). Subsequently, antibody A serially diluted to a range of 100, 50, 25, 12.5, 6.3, 3.2, 1.6, 0 nM with HBS-EP was added to the sensor chip for 120 seconds, and the binding reaction curve at the time of addition (binding phase, 120 seconds) and after completing the addition (dissociation phase, 600 seconds) was sequentially observed. Upon completion of each observation, 4 M MgCl₂ (60 seconds, Wako Pure Chemicals) was added to regenerate the sensor chip. Fitting analysis by 1:1 binding model employing the software accompanying the system, BIA evaluation software, was carried out against the binding reaction curve obtained, and the binding affinity (KD=kd/ka) against mouse and human EphA4 was calculated.
The binding affinity of antibody B obtained in Example 1 against human EphA4 was determined by surface plasmon resonance (SPR method) employing Biacore T200 (GE Healthcare). First, anti-His antibodies (GE Healthcare, 28-9950-56) were fixed to a sensor chip CMS. […]

[2] = target: T2, human EphA4 fibronectin type III domain 2-MBP-His protein (human, UniProt P54764 436-547); assay: ELISA; domain-MBP-His protein captured by anti-6-His antibody
T2 construct: also called fibronectin type III domain 2 (FN2); not shown: histidine tag
T2 sequence (P54764 436-547 limits assumed): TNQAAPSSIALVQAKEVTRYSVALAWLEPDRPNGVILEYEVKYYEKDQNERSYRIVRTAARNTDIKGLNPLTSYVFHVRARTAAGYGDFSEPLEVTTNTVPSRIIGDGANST
Experimental: (§1) Rabbit anti-6-His antibodies (Bethyl Laboratories) were coated onto the wells of a 96-well plate (Nunc). After incubating at 4° C. overnight, the wells were blocked at room temperature for 1 hour by 1% Block Ace (DS Pharma Biomedical). After washing twice with 0.02% Tween 20/PBS (Nacalai Tesque), human EphA4 extracellular region-MBP-His protein, human EphA4 ligand binding domain-MBP-His protein, human EphA4 fibronectin type III domain 1-NBP-His protein, and human EphA4 fibronectin type III domain 2-MBP-His protein (final concentration 10 nM) were seeded into the wells, and incubated at room temperature for 1 hour. After washing 3 times, antibody A (final concentration 10 nM) was supplemented to the wells, and incubated at room temperature for 1 hour. Horseradish peroxidase-labeled goat anti-mouse IgG Fcγ fragment antibody (Jackson ImmunoResearch Laboratories) was added, and incubated at room temperature for 1 hour. After washing 5 times, TMB solution (KPL) was added to the wells, and upon confirmation of modest coloring, an equal amount of quenching solution (2 N H₂SO₄, Wako Pure Chemicals) was added to the wells, and absorbance at 450 nm and 650 nm were read by a microplate reader (PerkinElmer).
as §1, with “domain 1-MBP-His” for “domain 1-NBP-His”, “antibody B” for “antibody A”, “peroxidase-labeled rabbit anti-human” for “peroxidase-labeled goat anti-mouse”, “IgG Fey” for “IgG Fcγ”, “hour.” for “hour. After washing 5 times, TMB solution (KPL) was added to the wells, and upon confirmation of modest coloring, an equal amount of quenching solution (2 N H₂SO₄, Wako Pure Chemicals) was added to the wells, and absorbance at 450 nm and 650 nm were read by a microplate reader (PerkinElmer).”

[3] = target: T3, human EphA4 fibronectin type III domain 1-MBP-His protein (human, UniProt P54764 205-440); assay: as above
T3 construct: also called fibronectin type III domain 1 (FN1); not shown: histidine tag
T3 sequence (P54764 205-440 limits assumed): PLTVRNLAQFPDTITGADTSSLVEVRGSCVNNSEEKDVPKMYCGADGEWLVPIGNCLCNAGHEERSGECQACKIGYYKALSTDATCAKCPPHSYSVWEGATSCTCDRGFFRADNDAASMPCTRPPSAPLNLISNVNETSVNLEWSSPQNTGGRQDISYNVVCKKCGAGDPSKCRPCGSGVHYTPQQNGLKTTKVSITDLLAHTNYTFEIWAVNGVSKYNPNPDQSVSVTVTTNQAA
Experimental: as §1
as §1, with “domain 1-MBP-His” for “domain 1-NBP-His”, “antibody B” for “antibody A”, “peroxidase-labeled rabbit anti-human” for “peroxidase-labeled goat anti-mouse”, “IgG Fey” for “IgG Fcγ”, “hour.” for “hour. After washing 5 times, TMB solution (KPL) was added to the wells, and upon confirmation of modest coloring, an equal amount of quenching solution (2 N H₂SO₄, Wako Pure Chemicals) was added to the wells, and absorbance at 450 nm and 650 nm were read by a microplate reader (PerkinElmer).”

[4] = target: T1, human EphA4 extracellular …; assay: competition ELISA; captured human EphA4 extracellular region-SEAP-His, competitor biotinylated human EphrinB3-Fc chimera (2.3 nM)

Row | Binder | Kd [1] [nM] | binding result [2] | binding result [3] | IC50 [4] [nM]
1 | B1 | 1.34 | no binding (tested: 10 nM) | no binding (tested: 10 nM) | ~1.6
2 | B2 | 1.19 | no binding (tested: 10 nM) | no binding (tested: 10 nM) | ~1.4

— US20240010735A1 (EISAI R AND D MANAGEMENT, published 2024)
